Reference: patent US20240117073A1, “METHODS OF TREATING NEOPLASTIC ASTROCYTOMA” (Ludwig Institute for Cancer Research Ltd., priority 2009, published 2024)
Where “and” joins values, the source holds several entries; their conditions need not be identical. Equal values may be shown once. Marks after values point to notes of the source that are not given here.

Experiments:
U87MG.DK cells = assay: FACS binding to cell lines; format: cell-based, human
Description: Stained cells were analyzed with a FACS Calibur™ using Cell Quest™ software (Becton-Dickinson PharMingen). […] 1. Mouse IgG2a or IgG2b was used as an isotype control.

[1] = target: T1, sEGFR (recombinant extracellular domain, amino acids 1-621, of the wild-type EGFR) (Homo sapiens, UniProt P00533); assay: ELISA on sEGFR coated plates; format: binding
T1 construct: sEGFR is the recombinant extracellular domain (amino acids 1-621) of the wild-type EGFR; host or cells: CHO cells
Description: Two types of ELISA were used to determine the specificity of the antibodies. […] Growth Factors. 18, 11-29). Antibodies were added to wells in triplicate at increasing concentration in 2% HSA in phosphate-buffered saline (PBS).

[2] = target: T2, Peptide C: LEEKKGNYVVTDH(K-Biot)-OH (Homo sapiens, UniProt P00533, DELINS30-297G); assay: BIAcore, immobilized Peptide C; format: binding; conditions: mAbL8A4 even at 6.25 nM; mAb806 up to 100 nM (highest tested)
T2 construct: purchased Biosource, Camarillo, CA; host or cells: synthetic
Description: Peptide C was immobilized on a Streptavidin microsensor chip at a surface density of 350RU (+/−30RU). Serial dilutions of mAbs were tested for reactivity with the peptide. Blocking experiments using non-biotinylated peptide were performed to assess specificity.

sEGFR = target: T3, sEGFR (Homo sapiens, UniProt P00533); assay: BIAcore, immobilized sEGFR; format: binding
T3 construct: sEGFR is the recombinant extracellular domain (amino acids 1-621) of the wild-type EGFR; host or cells: CHO cells
Description: In a second set of BIAcore™ experiments, sEGFR was immobilized on a CM microsensor chip at a surface density of ˜4000RU. Serial dilutions of mAbs were tested for reactivity with sEGFR.

junction peptide = target: T4, junction peptide (Homo sapiens, UniProt P00533, DELINS30-297G); assay: dot-blot immune stain; format: binding
T4 construct: purchased Biosource, Camarillo, CA; host or cells: synthetic
Description: Dot-blot immune stain experiments were also performed. Serial dilutions of peptide were spotted in 0.5 μl onto a PVDF or nitrocellulose membranes. […] Control antibodies were also negative for peptide binding.

A431 xenografts [3] = assay: preventative xenograft model; format: in vivo, nude mice
Description: (§1) Tumor cells (3×10^6) in […] of PBS were inoculated subcutaneously into both flanks of 4-6 week old female nude mice (Animal Research Centre, Western Australia, Australia). […] Treatment was continued for a total of 6 doses, 3 times per week for 2 weeks. In the established model, treatment was started when tumors had reached a mean volume of 65±6.42 mm^3 (U87MG.Δ2-7), 84±9.07 mm^3 (U87MG), 73±7.5 mm^3 (U87MG.wtEGFR) or 201±19.09 mm^3 (A431 tumors). Tumor volume in mm^3 was determined using the formula (length×width^2)/2, where length was the longest axis and width the measurement at right angles to the length (Clark et al. (2000) Therapeutic efficacy of anti-Lewis (y) humanized 3S 193 radioimmunotherapy in a breast cancer model: enhanced activity when combined with Taxol chemotherapy. Clin. Cancer Res. 6, 3621-3628). Data was expressed as mean tumor volume±S.E. for each treatment group. Statistical analysis was performed at given time points using Student's t-test. Animals were euthanized when the xenografts reached an approximate volume of 1.5 cm^3 and the tumors excised for histological examination. This research project was approved by the Animal Ethics Committee of the Austin and Repatriation Medical Centre.
These cells contain an amplified EGFR gene and express approximately 2×10^6 receptors per cell. […]

A431 xenografts [4] = assay: established xenograft model; format: in vivo, nude mice; conditions: day 13; 1 mg injection
Description: as §1
At day 13, when control animals were sacrificed, the mean tumor volume was 1142±120.06 mm^3 for the control group and 451±65.58 mm^3 for the 1 mg injection group (p<0.0001).

[5] = test system: panel of 12 different malignancies; assay: immunohistochemistry of tumor panel; design: species or system human
Description: Immunohistochemical analysis was performed using […] sections of fresh frozen tissue applied to histology slides and fixed for 10 minutes in cold acetone. Bound primary antibody was detected with biotinylated horse anti-mouse antibody followed by an avidin-biotin-complex reaction. Diaminobenzidine tetra hydrochloride (DAB) was used as chromogen. The extent of the immunohistochemical reactivity in tissues was estimated by light microscopy and graded according to the number of immunoreactive cells in 25% increments as follows: • Focal=less than 5% • +=5-25% • ++=25-50% • +++=50-75% • ++++=>75%
The extent of de2-7 EGFR in other tumor types was examined using a panel of 12 different malignancies. […] This staining was strongly dependent on antibody concentration used and was considered nonspecific background reactivity.

[6] = test system: U87MG.DK brain xenografts; assay: systemic treatment of intracranial xenografts; design: species or system nude mice; conditions: mouse, in vivo
Description: U87MG.ΔEGFR cells (1×10^5) or 5×10^5 LN-Z308.ΔEGFR, A1207.ΔEGFR, U87MG, U87MG.DK, and U87MG.wtEGFR cells in 5 μl of PBS were implanted into the right corpus stratum of nude mice brains as described previously (Mishima et al. (2000) A peptide derived from the non-receptor binding region of urokinase plasminogen activator inhibits glioblastoma growth and angiogenesis in vivo in combination with cisplatin. Proc. Natl. Acad. Sci. U.S.A. 97, 8484-8489).

U87MG.de2-7 cells = assay: ADCC assay; format: cell-based, human; conditions: E:T ratio 50:1
Description: PBMCs were isolated from healthy volunteer donor blood. Heparinized whole blood was fractionated by density centrifugation on Ficoll-Hypaque (ICN Biomedical Inc., Ohio, USA). PBMC fractions was collected and washed three times with RPMI+1640 supplemented with 100 U/ml penicillin and 100 μg/ml streptomycin, 2 mM L-glutamine, containing 5% heat-inactivated FCS.
CDC and ADCC assays were performed by a modification of a previously published method (Nelson, D. L. et al. (1991) In: J. E. Colignan, A. M. Kruisbeek, D. D. Margulies, E. M. Shevach, and W. Strober (eds.), Current Protocols in Immunology, pp. 7.27.1. New York: Greene Publishing Wiley Interscience). Briefly, 5×10^6 target U87MG.de2-7 and A431cells were labeled with 50 μCi^51Cr (Geneworks, Adelaide, Australia) per 1×10^6 cells and incubated for 2 hr at 37° C. The cells were then washed three time with PBS (0.05M, pH 7.4) and a fourth wash with culture medium. […]
In the first assay, labelled target cells were plated with the effector cells in 96-well “U” bottom microplates (NUNC, Roskilde, Denmark) at effector/target (E:T) cell ratios of 50:1. […] In both assays, micotitre plates were incubated at 37° C. for 4 hours, then 50 μl supernatant was harvested from each well and released ^51Cr was determined by gamma counting (Cobra II automated Gamma Counter, Canberra Packard, Melbourne, Australia). […]

[7] = test system: Ba/F3 cells expressing the wtEGFR; assay: EGF-induced proliferation (MTT assay); format: cell-based; conditions: antibody 10 μg/ml
Description: Cells growing in log phase were harvested and washed twice with PBS to remove residual IL-3. […] Proliferation was determined using the MTT assay (van de Loosdrecht et al. (1994) J. Immunol. Methods. 174, 311-320).

[8] = target: T5, denatured soluble domain of the EGFR (sEGFR) (Homo sapiens, UniProt P00533); assay: competition ELISA; format: binding; conditions: after unlabeled blocking antibody
T5 construct: sEGFR is the recombinant extracellular domain (amino acids 1-621) of the wild-type EGFR; made in house; host or cells: CHO cells
Description: Briefly, the denatured soluble domain of the EGFR (sEGFR) was coated on to ELISA plates. The unlabeled 124 or 1133 antibodies were then added across the plate in increasing concentrations.

A431 xenografts [9] = conditions: mouse, in vivo
Description: U87MG or A431 cells were injected on one side 7-10 days before U87MG.Δ2-7 cells were injected on the other side because of the faster growth rate observed for de2-7 EGFR expressing xenografts. Antibodies were radiolabeled and assessed for immunoreactivity as described above and were injected into mice by the retro-orbital route when tumors were 100-200 mg in weight. […] Unless indicated, groups of 5 mice were sacrificed at various time points post-injection and blood obtained by cardiac puncture. The tumors, liver, spleen, kidneys and lungs were obtained by dissection. All tissues were weighed and assayed for ^125I and ^131I activity using a dual-channel counting Window. Data was expressed for each antibody as % ID/g tumor determined by comparison to injected dose standards or converted into tumor to blood/liver ratios (i.e. % ID/g tumor divided by % ID/g blood or liver). Differences between groups were analyzed by Student's t-test.

B1: mAb806: murine monoclonal antibody recognizing de2-7 EGFR and amplified EGFR; VH SEQ ID NO:2, VL SEQ ID NO:4 (antibody, listed as Mus musculus, V domains shown)
VH: MRVLILLWLFTAFPGVLSDVQLQESGPSLVKPSQSLSLTCTVTGYSITSDFAWNWIRQFPGNKLEWMGYISYSGNTRYNPSLKSRISITRDTSKNQFFLQLNSVTIEDTATYYCVTAGRGFPYWGQGTLVTVSA
VL: MVSTAQFLAFLLLWFPGARCDILMTQSPSSMSVSLGDTVSITCHSSQDINSNIGWLQQRPGKSFKGLIYHGTNLDDEVPSRFSGSGSGADYSLTISSLESEDFADYYCVQYAQFPWTFGGGTKLEIKR
- FACS staining (U87MG.DK cells): reacted intensely
- inhibition of antibody binding to immobilized sEGFR by sEGFR in solution [1]: unable to inhibit
- binding to immobilized wild-type sEGFR ([1]; DH8.3 up to 10 μg/ml): dose-dependent and saturating binding curves
- inhibition of antibody binding to immobilized sEGFR by denatured sEGFR in solution ([1]; sEGFR heated 10 min at 95° C.): able to inhibit
- reactivity with Peptide C [2]: did not show detectable specific reactivity
- reactivity with denaturated sEGFR (sEGFR): strongly reactive
- binding to peptide on membranes (junction peptide): did not bind peptide
- effect on xenograft growth (A431 xenografts [3]; 0.1 mg): inhibited significantly
- mean tumor volume (A431 xenografts [3]; day 13, 1 mg injection): 260±60.33 mm^3 and 260±60 mm^3
- mean tumor volume (A431 xenografts [4]): 451±65.58 mm^3 and 450±70 mm^3
- positive tumors/tumors tested ([5]; Colonic carcinoma): 0/10
- positive tumors/tumors tested ([5]; Head + neck cancer (sqcc)): 7/11
- positive tumors/tumors tested ([5]; Leiomyosarcoma): 0/5
- positive tumors/tumors tested ([5]; Liposarcoma): 0/5*
- positive tumors/tumors tested ([5]; Lung (sqcc, adeno, neuroend)): 6/12
- positive tumors/tumors tested ([5]; Malignant melanoma metastases): 0/10
- positive tumors/tumors tested ([5]; Mammary gland): 1/10
- staining grades of positive tumors ([5]; Mammary gland): (foc)
- positive tumors/tumors tested ([5]; Mfh Malignant fibrous histiocytoma): 0/5*
- positive tumors/tumors tested ([5]; Ovary (serous-papillary)): 0/5
- positive tumors/tumors tested ([5]; Seminoma): 0/10
- positive tumors/tumors tested ([5]; Synovial sarcoma): 0/5*
- positive tumors/tumors tested ([5]; Urinary bladder (tcc, sqcc, adeno)): 3/10*
- tumors with positive staining ([5]; head and neck tumors): 64%
- tumors with positive staining ([5]; lung carcinomas): 50%
- tumors with positive staining ([5]; urinary tumors): 30%
- effect on survival [6]: did not extend survival
- ADCC (U87MG.de2-7 cells): lack of parental murine mAb806 immune effector function
- effect on EGF-induced proliferation [7]: no effect
- Binding of biotin-labeled 806 [8]: None
- uptake expressed as % ID/g tumor (A431 xenografts [9]): comparatively low
